Results as given in article PMC7195491.

Assays:
Test in all cases: SPR
[1] = molecular target: T1, DIP-γ (Dpr Interacting Protein gamma), extracellular region, Q9VAR6; details: chain shown with the change; 25 °C; 10 mM Tris-HCl, pH 7.2, 150 mM NaCl, 1 mM EDTA, 1 mg mL−1 BSA, 0.01% (v/v) Tween-20; analyte 81 to 0.012 μM, three-fold dilution series
T1 chain: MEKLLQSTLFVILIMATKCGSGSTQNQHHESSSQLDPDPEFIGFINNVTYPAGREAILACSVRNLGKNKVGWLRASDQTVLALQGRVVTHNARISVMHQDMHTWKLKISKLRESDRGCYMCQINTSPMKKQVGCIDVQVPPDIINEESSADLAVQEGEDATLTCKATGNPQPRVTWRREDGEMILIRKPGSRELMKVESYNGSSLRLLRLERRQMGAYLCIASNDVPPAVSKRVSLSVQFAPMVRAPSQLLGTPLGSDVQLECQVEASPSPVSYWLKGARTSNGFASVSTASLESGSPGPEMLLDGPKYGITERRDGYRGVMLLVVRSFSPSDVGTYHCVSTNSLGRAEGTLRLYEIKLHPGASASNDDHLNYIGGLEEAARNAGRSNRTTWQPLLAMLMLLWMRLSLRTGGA

[2] = molecular target: T2, DIP-α (Dpr Interacting Protein alpha), extracellular region, Q9W4R3; details: chain shown with the change; 25 °C; 10 mM Tris-HCl, pH 7.2, 150 mM NaCl, 1 mM EDTA, 1 mg mL−1 BSA, 0.01% (v/v) Tween-20; analyte 81 to 0.012 μM, three-fold dilution series; parent: 0.0 kcal/mol
T2 chain: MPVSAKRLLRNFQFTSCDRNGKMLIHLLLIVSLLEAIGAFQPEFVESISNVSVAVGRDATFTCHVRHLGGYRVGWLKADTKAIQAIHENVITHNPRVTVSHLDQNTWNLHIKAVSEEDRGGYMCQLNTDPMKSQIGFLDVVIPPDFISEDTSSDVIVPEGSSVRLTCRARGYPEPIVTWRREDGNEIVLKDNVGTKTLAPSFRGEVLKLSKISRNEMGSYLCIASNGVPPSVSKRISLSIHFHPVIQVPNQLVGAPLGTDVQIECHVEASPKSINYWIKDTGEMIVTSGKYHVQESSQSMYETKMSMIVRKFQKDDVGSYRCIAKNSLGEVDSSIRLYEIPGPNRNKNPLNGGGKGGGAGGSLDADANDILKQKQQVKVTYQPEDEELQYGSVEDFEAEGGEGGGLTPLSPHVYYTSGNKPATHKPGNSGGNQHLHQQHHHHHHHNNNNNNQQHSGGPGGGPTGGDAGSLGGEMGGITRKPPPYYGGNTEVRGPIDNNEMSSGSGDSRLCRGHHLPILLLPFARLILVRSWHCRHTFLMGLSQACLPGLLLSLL

[3] = molecular target: T3, Dpr11 (Defective proboscis extension response 11), extracellular region, Q8MRE6; details: chain shown with the change; 25 °C; 10 mM Tris-HCl, pH 7.2, 150 mM NaCl, 1 mM EDTA, 1 mg mL−1 BSA, 0.01% (v/v) Tween-20; analyte 81 to 0.012 μM, three-fold dilution series
T3 chain: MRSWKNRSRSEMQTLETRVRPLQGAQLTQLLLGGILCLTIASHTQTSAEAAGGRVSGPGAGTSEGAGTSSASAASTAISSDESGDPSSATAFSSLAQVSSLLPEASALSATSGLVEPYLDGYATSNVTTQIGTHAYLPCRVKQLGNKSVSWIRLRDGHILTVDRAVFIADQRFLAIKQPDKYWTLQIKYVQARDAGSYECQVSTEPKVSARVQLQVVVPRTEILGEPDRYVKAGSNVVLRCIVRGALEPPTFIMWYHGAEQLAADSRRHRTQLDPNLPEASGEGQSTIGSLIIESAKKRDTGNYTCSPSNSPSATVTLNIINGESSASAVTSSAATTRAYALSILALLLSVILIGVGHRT

B1: Dpr11 (Defective proboscis extension response 11), extracellular region, Q8MRE6 K207V (protein)
chain: MRSWKNRSRSEMQTLETRVRPLQGAQLTQLLLGGILCLTIASHTQTSAEAAGGRVSGPGAGTSEGAGTSSASAASTAISSDESGDPSSATAFSSLAQVSSLLPEASALSATSGLVEPYLDGYATSNVTTQIGTHAYLPCRVKQLGNKSVSWIRLRDGHILTVDRAVFIADQRFLAIKQPDKYWTLQIKYVQARDAGSYECQVSTEPVVSARVQLQVVVPRTEILGEPDRYVKAGSNVVLRCIVRGALEPPTFIMWYHGAEQLAADSRRHRTQLDPNLPEASGEGQSTIGSLIIESAKKRDTGNYTCSPSNSPSATVTLNIINGESSASAVTSSAATTRAYALSILALLLSVILIGVGHRT
- ddG [1]: 0.6 kcal/mol

B2: Dpr11 (Defective proboscis extension response 11), extracellular region, Q8MRE6 E205Q; K207V (protein)
chain: MRSWKNRSRSEMQTLETRVRPLQGAQLTQLLLGGILCLTIASHTQTSAEAAGGRVSGPGAGTSEGAGTSSASAASTAISSDESGDPSSATAFSSLAQVSSLLPEASALSATSGLVEPYLDGYATSNVTTQIGTHAYLPCRVKQLGNKSVSWIRLRDGHILTVDRAVFIADQRFLAIKQPDKYWTLQIKYVQARDAGSYECQVSTQPVVSARVQLQVVVPRTEILGEPDRYVKAGSNVVLRCIVRGALEPPTFIMWYHGAEQLAADSRRHRTQLDPNLPEASGEGQSTIGSLIIESAKKRDTGNYTCSPSNSPSATVTLNIINGESSASAVTSSAATTRAYALSILALLLSVILIGVGHRT
- ddG [1]: 1.7 kcal/mol

B3: Dpr11 (Defective proboscis extension response 11), extracellular region, Q8MRE6 K207V; E205Q; G157L (protein)
chain: MRSWKNRSRSEMQTLETRVRPLQGAQLTQLLLGGILCLTIASHTQTSAEAAGGRVSGPGAGTSEGAGTSSASAASTAISSDESGDPSSATAFSSLAQVSSLLPEASALSATSGLVEPYLDGYATSNVTTQIGTHAYLPCRVKQLGNKSVSWIRLRDLHILTVDRAVFIADQRFLAIKQPDKYWTLQIKYVQARDAGSYECQVSTQPVVSARVQLQVVVPRTEILGEPDRYVKAGSNVVLRCIVRGALEPPTFIMWYHGAEQLAADSRRHRTQLDPNLPEASGEGQSTIGSLIIESAKKRDTGNYTCSPSNSPSATVTLNIINGESSASAVTSSAATTRAYALSILALLLSVILIGVGHRT
- ddG [2]: < -2 kcal/mol

B4: DIP-γ (Dpr Interacting Protein gamma), extracellular region, Q9VAR6 D77T (protein)
chain: MEKLLQSTLFVILIMATKCGSGSTQNQHHESSSQLDPDPEFIGFINNVTYPAGREAILACSVRNLGKNKVGWLRASTQTVLALQGRVVTHNARISVMHQDMHTWKLKISKLRESDRGCYMCQINTSPMKKQVGCIDVQVPPDIINEESSADLAVQEGEDATLTCKATGNPQPRVTWRREDGEMILIRKPGSRELMKVESYNGSSLRLLRLERRQMGAYLCIASNDVPPAVSKRVSLSVQFAPMVRAPSQLLGTPLGSDVQLECQVEASPSPVSYWLKGARTSNGFASVSTASLESGSPGPEMLLDGPKYGITERRDGYRGVMLLVVRSFSPSDVGTYHCVSTNSLGRAEGTLRLYEIKLHPGASASNDDHLNYIGGLEEAARNAGRSNRTTWQPLLAMLMLLWMRLSLRTGGA
- ddG [3]: 0.9 kcal/mol
